Measured values from patent US20070270364.

Molecular target: GST-p68 fusion polypeptides

B1: histone acetyltransferase (HAT) region of p300 (protein)
chain: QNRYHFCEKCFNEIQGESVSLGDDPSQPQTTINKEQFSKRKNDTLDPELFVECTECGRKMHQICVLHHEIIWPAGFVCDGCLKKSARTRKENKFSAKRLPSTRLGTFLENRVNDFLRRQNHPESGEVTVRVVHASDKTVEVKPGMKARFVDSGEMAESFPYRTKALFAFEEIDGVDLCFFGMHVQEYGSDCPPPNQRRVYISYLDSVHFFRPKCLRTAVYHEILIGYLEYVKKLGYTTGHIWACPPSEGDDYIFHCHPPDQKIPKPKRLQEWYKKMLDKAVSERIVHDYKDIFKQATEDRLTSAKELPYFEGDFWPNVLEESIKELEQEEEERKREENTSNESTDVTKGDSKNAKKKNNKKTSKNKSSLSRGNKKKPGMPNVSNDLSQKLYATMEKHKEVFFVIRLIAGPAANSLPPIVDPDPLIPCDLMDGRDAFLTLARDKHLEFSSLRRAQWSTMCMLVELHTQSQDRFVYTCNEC
in vitro 14C-acetylation of GST-p68 fusion polypeptides (autoradiogram): p300 indeed acetylated p68 polypeptides exclusively within its N-terminal 80 amino acids
